The target in one data set is T1, purified kidney DPIV (Sus scrofa, UniProt P22411).
T1 construct: The hydrolysis of peptide analogues by purified kidney DPIV was studied as described previously [12]; from tissue; host or cells: kidney
Put plainly: Determination of DPIV resistance by MALDI-TOF mass spectrometry. Format: in vitro ADME. As to conditions: for half-life: read-out: half life after incubation with DP IV. Here is the method:
The hydrolysis of peptide analogues by purified kidney DPIV was studied as described previously. […] Samples were removed from the incubation mixture and prepared for MALDI-TOF mass spectrometry, as described in Pauly, […]., Pederson, R. A., and Demuth, H. U.

Data set [1] addresses T2, rat pancreatic islet (wild type) GIP-receptor stably expressed on CHO-K1 cells (rat, UniProt P43219 19-455).
T2 sequence (looked up): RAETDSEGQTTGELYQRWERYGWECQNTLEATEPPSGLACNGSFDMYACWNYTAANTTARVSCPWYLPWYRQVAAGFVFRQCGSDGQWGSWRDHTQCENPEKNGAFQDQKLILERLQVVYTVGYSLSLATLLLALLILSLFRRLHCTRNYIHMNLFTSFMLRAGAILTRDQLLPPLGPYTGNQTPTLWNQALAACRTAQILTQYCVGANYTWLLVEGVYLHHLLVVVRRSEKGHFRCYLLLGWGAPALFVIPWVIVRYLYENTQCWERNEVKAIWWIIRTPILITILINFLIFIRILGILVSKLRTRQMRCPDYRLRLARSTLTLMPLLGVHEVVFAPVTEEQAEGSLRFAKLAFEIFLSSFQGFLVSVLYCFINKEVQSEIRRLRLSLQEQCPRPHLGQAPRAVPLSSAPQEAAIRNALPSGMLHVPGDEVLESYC
As to the kind of experiment: cell-based or functional assay.

In data set [2] the target is T2, rat pancreatic islet (wild type) …. As to the kind of experiment: competition with 125I-GIP on CHO-K1 cells transfected with rat GIP receptor. The procedure: (§1) Cells were cultured in DMEM/F12, supplemented with 10% newborn calf serum, 50 units/ml penicillin G, and 50 μg/ml streptomycin (Culture media and antibiotics from Gibco BRL, Life Technologies). Cells were grown in 75 cm² flasks until 80-90% confluent, when they were split and seeded onto 24 well plates at a density of 50,000 cells/well. Experiments were carried out 48 h later.
(§2) Binding studies using ¹²⁵I-labeled spGIP₁₋₄₂, purified by high performance liquid chromatography (HPLC), were performed essentially as described previously-[21]. wtGIP-R1 Cells (1-5×10⁵/well) were washed twice at 4° C. in binding buffer (BB), consisting of DMEM/F12 (GIBCO), 15 mM HEPES, 0.1% bovine serum albumin (BSA), 1% Trasylol (aprotinin; Bayer), pH 7.4. They were incubated for 12-16 h at 4° C. with ¹²⁵I-spGIP (50,000 cpm) in the presence or absence of unlabeled GIP₁₋₄₂ or analogue. Following incubation, cells were washed twice with ice cold buffer, solubilized with 0.1 M NaOH (1 ml), and transferred to culture tubes for counting of cell-associated radioactivity. Nonspecific binding was defined as that measured in the presence of 1 μM GIP₁₋₄₂ or GIP₁₋₃₀, and specific binding expressed as % of binding in the absence of competitor (% B/Bo).

Data set [3] has the same target. As to the kind of experiment: displacement of 125I-GIP from CHO-K1 cells transfected with rat GIP receptor, 20 µM peptide. Here is the method:
as §1, §2
In general terms: In a radioligand displacement assay an active substance lowers the binding of a labelled ligand.

Setting [4] is: purified kidney DPIV, 0.04 M Tris buffer pH 7.6, up to 24 h, MALDI-TOF MS.

The values that follow come from US20050137135A1 (priority 2002, published 2005).

Square brackets hold non-standard residues; d marks the D form. Ends that are not written are not given here. Peptide text beside a SMILES is read from it. Ahx = NCCCCCC(=O)O

T1 sequence (P22411 whole entry): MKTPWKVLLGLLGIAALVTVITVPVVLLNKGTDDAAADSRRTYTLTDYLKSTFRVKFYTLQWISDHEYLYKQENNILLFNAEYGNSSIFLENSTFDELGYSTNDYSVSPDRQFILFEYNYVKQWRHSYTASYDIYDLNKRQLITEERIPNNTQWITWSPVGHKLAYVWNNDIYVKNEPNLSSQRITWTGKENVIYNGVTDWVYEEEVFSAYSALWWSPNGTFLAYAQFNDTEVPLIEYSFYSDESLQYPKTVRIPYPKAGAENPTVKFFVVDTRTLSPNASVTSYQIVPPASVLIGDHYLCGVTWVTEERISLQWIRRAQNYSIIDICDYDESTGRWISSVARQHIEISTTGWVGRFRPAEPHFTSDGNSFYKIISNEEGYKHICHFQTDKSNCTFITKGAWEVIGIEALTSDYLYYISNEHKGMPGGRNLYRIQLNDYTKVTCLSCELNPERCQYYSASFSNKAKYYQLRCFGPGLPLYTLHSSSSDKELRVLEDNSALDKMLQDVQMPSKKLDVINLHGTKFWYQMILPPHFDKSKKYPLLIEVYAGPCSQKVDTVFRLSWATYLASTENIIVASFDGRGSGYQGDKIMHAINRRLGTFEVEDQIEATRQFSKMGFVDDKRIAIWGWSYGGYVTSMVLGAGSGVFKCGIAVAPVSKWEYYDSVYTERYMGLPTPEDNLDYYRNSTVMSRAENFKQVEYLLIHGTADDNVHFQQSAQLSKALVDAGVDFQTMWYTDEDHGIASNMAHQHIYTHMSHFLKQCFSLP

With `C[C@@H](NC(=O)[C@@H](N)Cc1ccc(O)cc1)C(=O)N[C@@H](CCC(=O)O)C(=O)NCC(=O)N[C@H](C(=O)N[C@@H](Cc1ccccc1)C(N)=O)[C@@H](C)O` [D-Ala^2-GIP1-6a] (H-Y[dA]EGTF-NH2), on purified kidney DPIV (setting [4]), the “half life after incubation with DP IV” value is given as “stable”.

As to `CC[C@H](C)[C@H](NC(=O)[C@H](CO)NC(=O)[C@H](Cc1ccc(O)cc1)NC(=O)[C@H](CC(=O)O)NC(=O)[C@H](CO)NC(=O)[C@@H](NC(=O)[C@H](Cc1ccccc1)NC(=O)[C@@H](NC(=O)CNC(=O)[C@H](CCC(=O)O)NC(=O)[C@@H](C)NC(=O)[C@@H](N)Cc1ccc(O)cc1)[C@@H](C)O)[C@@H](C)CC)C(=O)N[C@@H](C)C(=O)N[C@@H](CCSC)C(=O)O` [D-Ala^2-GIP1-14], the “half life after incubation with DP IV” value at purified kidney DPIV (setting [4]) is “stable”.

With `CC[C@H](C)[C@H](NC(=O)[C@H](CO)NC(=O)[C@H](Cc1ccc(O)cc1)NC(=O)[C@H](CC(=O)O)NC(=O)[C@H](CO)NC(=O)[C@@H](NC(=O)[C@H](Cc1ccccc1)NC(=O)[C@@H](NC(=O)CNC(=O)[C@H](CCC(=O)O)NC(=O)[C@H](C)NC(=O)[C@@H](N)Cc1ccc(O)cc1)[C@@H](C)O)[C@@H](C)CC)C(=O)N[C@@H](C)C(=O)O` [GIP1-13], the half-life – broadly, the time in which the quantity being followed falls by half – on purified kidney DPIV (setting [4]) was 11.5 ± 2.5 min.

On to `CC[C@H](C)[C@H](NC(=O)[C@H](CO)NC(=O)[C@H](Cc1ccc(O)cc1)NC(=O)[C@H](CC(=O)O)NC(=O)[C@H](CO)NC(=O)[C@@H](NC(=O)[C@H](Cc1ccccc1)NC(=O)[C@@H](NC(=O)CNC(=O)[C@H](CCC(=O)O)NC(=O)[C@H](C)NC(=O)[C@@H](N)Cc1ccc(O)cc1)[C@@H](C)O)[C@@H](C)CC)C(=O)N[C@@H](C)C(=O)N[C@@H](CCSC)C(=O)N[C@@H](CC(=O)O)C(=O)O` [GIP1-15], for which the half-life on purified kidney DPIV (setting [4]) was 35 ± 5.2 min.

Take “D-Ala^2-GIP1-30a: GIP1-30 analog, N-terminal sequence Tyr-D-Ala-Glu-Gly (Y[dA]EGTFISDYSIAMDKIRQQDFVNWLLAQK-NH2)”: the “half life after incubation with DP IV” value with purified kidney DPIV (pH 7.6) is given as “stable”.

B1: GIP(1-6)(Ahx)3(19-30)NH2 (peptide, UniProt P09681 52-57, looked up)
peptide: YAEGTF[Ahx][Ahx][Ahx]QQDFVNWLLAQK-NH2
modifications: N-terminus assumed
SMILES: CC(C)C[C@H](NC(=O)[C@H](CC(C)C)NC(=O)[C@H](Cc1c[nH]c2ccccc12)NC(=O)[C@H](CC(N)=O)NC(=O)[C@@H](NC(=O)[C@H](Cc1ccccc1)NC(=O)[C@H](CC(=O)O)NC(=O)[C@H](CCC(N)=O)NC(=O)[C@H](CCC(N)=O)NC(=O)CCCCCNC(=O)CCCCCNC(=O)CCCCCNC(=O)[C@H](Cc1ccccc1)NC(=O)[C@@H](NC(=O)CNC(=O)[C@H](CCC(=O)O)NC(=O)[C@H](C)NC(=O)[C@@H](N)Cc1ccc(O)cc1)[C@@H](C)O)C(C)C)C(=O)N[C@@H](C)C(=O)N[C@@H](CCC(N)=O)C(=O)N[C@@H](CCCCN)C(N)=O
notes: range 52-57
Consider B1, for which the “Max. cAMP (Fold Basal)” value in data set [1] is 13.5 fold basal. Also, the IC50 (commonly the concentration that inhibits the measured activity by half) in data set [2] worked out at 4030 nM. Further, the “% Displacement at 20 µM” value in data set [3] was found to be 67.1%.

B2: GIP(1-14)(Ahx)3(19-30)NH2 (peptide, UniProt P09681 52-65, looked up)
peptide: YAEGTFISDYSIAM[Ahx][Ahx][Ahx]QQDFVNWLLAQK-NH2
modifications: N-terminus assumed
SMILES: CC[C@H](C)[C@H](NC(=O)[C@H](CO)NC(=O)[C@H](Cc1ccc(O)cc1)NC(=O)[C@H](CC(=O)O)NC(=O)[C@H](CO)NC(=O)[C@@H](NC(=O)[C@H](Cc1ccccc1)NC(=O)[C@@H](NC(=O)CNC(=O)[C@H](CCC(=O)O)NC(=O)[C@H](C)NC(=O)[C@@H](N)Cc1ccc(O)cc1)[C@@H](C)O)[C@@H](C)CC)C(=O)N[C@@H](C)C(=O)N[C@@H](CCSC)C(=O)NCCCCCC(=O)NCCCCCC(=O)NCCCCCC(=O)N[C@@H](CCC(N)=O)C(=O)N[C@@H](CCC(N)=O)C(=O)N[C@@H](CC(=O)O)C(=O)N[C@@H](Cc1ccccc1)C(=O)N[C@H](C(=O)N[C@@H](CC(N)=O)C(=O)N[C@@H](Cc1c[nH]c2ccccc12)C(=O)N[C@@H](CC(C)C)C(=O)N[C@@H](CC(C)C)C(=O)N[C@@H](C)C(=O)N[C@@H](CCC(N)=O)C(=O)N[C@@H](CCCCN)C(N)=O)C(C)C
notes: range 52-65; also called GlP(1-14)(Ahx)3(19-30)NH2
Turning to B2, in data set [1], the “Max. cAMP (Fold Basal)” value worked out at 49.5 fold basal and the “cAMP Production EC50” value is ~20000 nM. In addition, the IC50 in data set [2] was determined as 3210 nM. Further, in data set [3], the “% Displacement at 20 µM” value turned out to be 82.7%.

For the molecule YAEGTFISDYSIAMAAAAQQDFVNWLLAQK-NH2 (range 1-14;range 19-30) [GIP(1-14)(AAAA)(19-30)NH2], in data set [1], the “Max. cAMP (Fold Basal)” value was 82.1 fold basal and the “cAMP Production EC50” value was found to be 0.0587 nM. Further, the IC50 in data set [2] was determined as 66.3 nM. The “% Displacement at 20 µM” value in data set [3] came out at 100%.

B3: GIP(1-14)(Ahx)1(19-30)NH2 (peptide, UniProt P09681 52-65, looked up)
peptide: YAEGTFISDYSIAM[Ahx]QQDFVNWLLAQK-NH2
modifications: N-terminus assumed
SMILES: CC[C@H](C)[C@H](NC(=O)[C@H](CO)NC(=O)[C@H](Cc1ccc(O)cc1)NC(=O)[C@H](CC(=O)O)NC(=O)[C@H](CO)NC(=O)[C@@H](NC(=O)[C@H](Cc1ccccc1)NC(=O)[C@@H](NC(=O)CNC(=O)[C@H](CCC(=O)O)NC(=O)[C@H](C)NC(=O)[C@@H](N)Cc1ccc(O)cc1)[C@@H](C)O)[C@@H](C)CC)C(=O)N[C@@H](C)C(=O)N[C@@H](CCSC)C(=O)NCCCCCC(=O)N[C@@H](CCC(N)=O)C(=O)N[C@@H](CCC(N)=O)C(=O)N[C@@H](CC(=O)O)C(=O)N[C@@H](Cc1ccccc1)C(=O)N[C@H](C(=O)N[C@@H](CC(N)=O)C(=O)N[C@@H](Cc1c[nH]c2ccccc12)C(=O)N[C@@H](CC(C)C)C(=O)N[C@@H](CC(C)C)C(=O)N[C@@H](C)C(=O)N[C@@H](CCC(N)=O)C(=O)N[C@@H](CCCCN)C(N)=O)C(C)C
notes: range 52-65
For the molecule B3, in data set [1], the “Max. cAMP (Fold Basal)” value is 102 fold basal and the “cAMP Production EC50” value is 1410 nM. This molecule also gave an IC50 in data set [2] of 2710 nM. The “% Displacement at 20 µM” value in data set [3] worked out at 86.1%.

B4: GIP(1-14)(19-30)NH2 (peptide, UniProt P09681 52-65, looked up)
peptide: YAEGTFISDYSIAMQQDFVNWLLAQK-NH2
notes: range 1-14;range 19-30; Core deletion, no linker (formula 6, D unused, truncated at residue 30)
Regarding B4, in data set [1], the “Max. cAMP (Fold Basal)” value was found to be 127 fold basal and the “cAMP Production EC50” value was 78.7 nM. In addition, the IC50 in data set [2] was 1370 nM. For the same molecule, the “% Displacement at 20 µM” value in data set [3] worked out at 95.4%.

B5: GIP(1-14)(Ahx)2(19-30)NH2 (peptide, UniProt P09681 52-65, looked up)
peptide: YAEGTFISDYSIAM[Ahx][Ahx]QQDFVNWLLAQK-NH2
modifications: N-terminus assumed
SMILES: CC[C@H](C)[C@H](NC(=O)[C@H](CO)NC(=O)[C@H](Cc1ccc(O)cc1)NC(=O)[C@H](CC(=O)O)NC(=O)[C@H](CO)NC(=O)[C@@H](NC(=O)[C@H](Cc1ccccc1)NC(=O)[C@@H](NC(=O)CNC(=O)[C@H](CCC(=O)O)NC(=O)[C@H](C)NC(=O)[C@@H](N)Cc1ccc(O)cc1)[C@@H](C)O)[C@@H](C)CC)C(=O)N[C@@H](C)C(=O)N[C@@H](CCSC)C(=O)NCCCCCC(=O)NCCCCCC(=O)N[C@@H](CCC(N)=O)C(=O)N[C@@H](CCC(N)=O)C(=O)N[C@@H](CC(=O)O)C(=O)N[C@@H](Cc1ccccc1)C(=O)N[C@H](C(=O)N[C@@H](CC(N)=O)C(=O)N[C@@H](Cc1c[nH]c2ccccc12)C(=O)N[C@@H](CC(C)C)C(=O)N[C@@H](CC(C)C)C(=O)N[C@@H](C)C(=O)N[C@@H](CCC(N)=O)C(=O)N[C@@H](CCCCN)C(N)=O)C(C)C
notes: range 52-65
In the case of B5, in data set [1], the “Max. cAMP (Fold Basal)” value stood at 95.9 fold basal and the “cAMP Production EC50” value was determined as 2510 nM. Moreover, the IC50 in data set [2] is 2770 nM. In addition, the “% Displacement at 20 µM” value in data set [3] is 85.8%.

In the case of YAEGTFISDYSIAMEKEKQQDFVNWLLAQK-NH2 (range 1-14;range 19-30) [GIP(1-14)(EKEK)(19-30)NH2], in data set [1], the “Max. cAMP (Fold Basal)” value was determined as 80.6 fold basal and the “cAMP Production EC50” value was determined as 0.077 nM. Further, the IC50 in data set [2] stood at 26 nM. For the same molecule, in data set [3], the “% Displacement at 20 µM” value turned out to be 98.7%.
